# System: K4 kissing-loop RNA reporter
# Assay: apparent KD of K4 kissing-loop reporter; higher = weaker reporter binding
# Conditions: Eterna round: R107; input ligand: none
# Experimental: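 RNA-MaP round R107: designed RNA switches with theophylline, tryptophan, arginine or FMN aptamers are transcribed on-chip within common flanks. They are titrated with a labelled K4 kissing-loop RNA reporter in RNA-MaP buffer (100 mM Tris pH 7.5, 80 mM KCl, 4 mM MgCl2), without ligand or with the indicated ligand. Median apparent KD per design.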
# 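Also: bound reporter read as fluorescence of individual clusters on recovered sequencing chips by microscopy, with normalized cluster intensities fitted with a binding model.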
row,Sequence,apparent KD of K4 kissing-loop reporter [nM]
1,GGUGUUGUUUGUGCCGUCUUCCUCGUUCCUCGAGGACCGGUACGGCCGCCACUCGAGUGAUGUUUGGGUAGCGAUCCCUGUUAGU [Bdazzled - #10 Exc. Tryptophan A],647
2,GGAUCGCAUGGCGAAAAGCCAUGCGAUCCACGAGGACCGGUACGGCCGCCACUCGCCGGAGUGAUGUUCCGCUACAGAUCUUAAA,256
3,AAUGUACAGGGAAGGAGCGUAGUCCAGUGAUGUUGGAAUUAAAUUCCUGUGAUGUUGGUUAUACAGGUAGGUCGCCCUAAAGUGC [KL-XARG-B21],108
4,UGUGUGUAGGGAAGGAGCGCCGAGAGAAGAAGAAAAGAGUGAUGUUCAAGACAAUAAAGACGGCAGGUAGGUCGCCCUGUGUGUG [Default title],516
5,GUAGCACUUGGUAGUGAUGUUACCAAGGACAAGGAUAUCAUCUCAAUGAGAAGGUGUCCUUGGUAACAGCUACGGGAAUAUCCCA [Omei KL FMN A Exc D v2],226
6,AGACUACUGAUAGGAUAUAACAUCCUAGUCGUAUACCGAAAGGUAUACGAUAUCCUUCUAGUGAUGUUAGAAGGGUCGGUAGUCA [Omei KL FMN B Exc B v10],103
7,UGAUGUUUAGUUCACCCAGUGAUGUUGGAAGGAGCGUGCGAAAGCACAGGUAGGUCGCCAACCUAAAAGUGUCUUGAUUAUCUAA [JR_Nu_ExcArginiA_Sub028],444
8,GAUGCAUAUUCCUGGAGGAAGAUGGUUAAGAAGGAUAUCAAAGCCGUGAGAAGGUCUAAACCUAAUAGUCGAGUGAUGUUCGACC [theeternabot_sameState_KL_FMN_A_35],356
9,AUCUGGUUGGGCGAUACCAGUUUGGCAUAGUGAUGUUAUGCAACGCUCAGUGCAAGGCCAAACCCUUGGCAGCGCACAUCCUUUC [theeternabot_exclusion_KL_Theo_B_3],105
10,GGUGUUGUUUGUGCCGUUUUCCUCGUUCCUCGAGGACCGGUACGGCCGCCACUCGAGUGAUGUUUGGGUAGCGAUCCCUGUUAGU [Bdazzled - #9 Exc. Tryptophan A],871
11,AGAUGUCCCUGGGAUACCAGUCGGAGUCUCAGAGCUCGGAGUGAUGUUCUGGGAUGUUUCGGCCCUUGGCAGCUCUGGGACUCCC [#2 Exclusion - Theophylline B Attempt #25 (HarryS)],847
12,GCCGUACGCAUGGAUACCAGCAAUUAUGCUCGUAUCCUAGUGAUGUUAGUGGCGAAUAUUUGCCCUUGGCAGCCAUGCGUACGGC,1160
13,ACUCUUGCGUAUGAUACCAGCUUGUACCGCCACAUAUAUUCUAAGAGUUGAGUGAUGUUUAGCCCUUGGCAGCAUACUUGUGCGU [theeternabot_exclusion_KL_Theo_B_42],778
14,UGACUGGACUGAAGGAGCGCUGAACUCCUAGUGAUGUUAGGAAAACGAGACAAAGUCUCGAAGCAGGUAGGUCGCAGUCUAGUCU,112
15,GGUAGCAUGGCGGCCGCCACUAUAAAGAAUCCAAAGGAUUCUAGGUAGUGAUGUUACCAUAGCUAUAGGACCGGGCCAUGCUACC,174
16,AGUACGGCAAACUUGCAACAAGCCGUACCACGAGGACCGGUACGGCCGCCACUCGAUAACUUGCAGUGAUGUUGCAAGUAAGAAU [(T)''-(K)'-(T)'-(T1)-(T2)-(K1)-(K2)_Design5],169
17,CCCUCACGAGUGAUGUUCGUAGGGUACAGUCAGGAUAUCAUGCGGUUGAGAAGGGACAGAGAAGGCGGCCACGGGUUGCUUAUCU [Ussoat],342
18,UAACGACUCGGAAGGAGCGCGGUUUUAAAAGACUAAGGCCGAGUGAUGUUCGGAGAAGUCCCGCAGGUAGGUCGCCGGGUUGUGG [Ceororedar],130
19,AAGCAGUCUCUUGUAGUCAUCGAAGAUGAACGAGGACCGGUACGGCCGCCACUCGGAGUGAUGUUCCGAAGACUGCAAAAUAAAA [MatMod 17 - Jieux - Exclusion - Tryptophan A],1010
20,CGGCUCACGCAAGGAUAUCGCAGUGAGUACUCUGGAAGAAUAAAGCUAGUGAUGUUAGGUUAGAAGCGAGAAGGUGCGGCCGUAU [theeternabot_sameState_KL_FMN_B_30],128
21,UGGAUAUAGUGAUGUUAUAUAGAGAUGGAUACCAGUUGAGAGAAUAGCCCUUGGCAGCCGAAAGAAGUAUCAUUAGAGAAGAAUG [ExTheophyl.Ak],230

# Same assay, conditions: Eterna round: R107; input ligand: theophylline 20 uM
row,Sequence,apparent KD of K4 kissing-loop reporter [nM]
1,GGAACGUUGCGGACUAUCGCAUAAAGUCACCGAGGACCGGUACGGCCGCCACUCGCCAGUGAUGUUGGCGUGUUUGCGCGCUGUA [Isteri],83.6
2,UGAGAGUACCGGAUGGAGAAAUUGUAUGAUACCAGAGCAGAUUACCUCCCUUGGCAGCAUGCAUCCUGCUAGUGAUGUUGGCAAC [theeternabot_sameState_KL_Theo_A_48],669
3,UGAUACCAGACGGCCGCCACUCCUGCAGUCAAAGACUGCUAAGGAAUAUUCGUCCAGUGAUGUUGGAGGACCGGGUCUGGUAUCU [TrypBX 12 #SwitchBubble #Palindromic #StaticStem],896
4,GUGACGCGGACGGCCGCCACUCCGGUGACCGCUCCGUGCCGCCCUGCGCGAGUGAUGUUCGCCAGGAGGACCGGGUCCGACUUUA [Soesente],89.4
5,GGUGCGGGCUCGGCCGCCACUCCCUCCUGCCGUAAGGUGGGAUACCGAGUGAUGUUCGGUUGGAGGAGGACCGGGAGCCCGUGCC [#2 Exclusion - Tryptophan B Attempt #16 (HarryS)],110
6,AGAGUCACAUAAGGAUAUCCCUUGACGGGAACCAAGUGAUGUUUGGUUAGACGACCUCUUAUCACGGGAGAAGGUAUAUUUGUAU [theeternabot_sameState_KL_FMN_B_27],676
7,CGCAAGCAGCCAGUGAUGUUGGCUGCCUUGCGAGGACCGGUACGGCCGCCACUCGAAGGCAGCUACUGGUAAACCGUCUAACGGA [Atere],90.7
8,AAAAUAAGCCAGUGAUGUUGGUAGCCAGAUACCAGCGACGAAAGUCGCCCUUGGCAGCUGUGGACGUACAAAAUAAGUACGUCCU,711
9,UGUACCGAGUCAGGAUAUGGCGUCGAAAGACGAAUCCUAGUGAUGUUAGGGAUCUGCGAAAGCAGUCCAGAAGGGACUUGGUACU [FmnBS 26 #SwitchBubble #StaticStem #DoubleMagnetSystem],389
10,GUGCAGUGAUGUUGCACGAGGAAAGACGAUACCAGCCGUAAAUAAGGCCCUUGGCAGCGUAGGCUAGCAUAAAGUACGCUAGUCC [Enarines],101
11,GGCAGUGAUGUUGCCAGUGGCAGAUUGGAAGGAGCGUGGUGAGACACAGGUAGGUCGCUAAUUGAAGUUGCUGUCACUAGAAUGC [whbob_Ex_Arginine_A_2t132],335
12,ACUUGCACAAAGUCGUCAACCGGUGAAUCAAAGGAUAUUAAUUCACUAAGAAGGUUGAGCCGAGUGAUGUUCGACUGUAAGUCCC [theeternabot_exclusion_KL_FMN_A_34],506
13,AAACGUUGGUCGGAUACCAGUUAGACCGAUAAGGUCAAAACUGGAGUGAUGUUCCCAAAUAACCCUUGGCAGCCGACCGACGAAA [MAT - Same State Theophlline B - Mod of Eli - D12],219
14,GUAUCGCUAGGAGGAUAUUUCAAUCCGCCUAUAAUAGGUGGUACGGAGUGAUGUUCCGAUUUACGGAAAGAAGGCCUAGUGAUAC [FMN B 16],283
15,AAACAACGUGACGAUACCAGCUUACUCGGCAAGCCAGUGAUGUUGGUGAAAAGGAGUCAAAGCCCUUGGCAGCGUCGAAGGUCUG [Georbeer],150
16,GGCCGCAAGGCGGGCCGGCCCACUCCGGAAGGAGCGCCCGCAAGGGCAGGUAGGUCGCCGGAGUGAUGUUCCGGUGGCCGGCCCG [#2 Exclusion - Arginine A Attempt #2 (Inspired by Omei)],93.8

row,Sequence,apparent KD of K4 kissing-loop reporter [nM]
1,GCAGUGAUGUUGCGCGGGUACAGUGGAGUGCGAGGACCGGUACGGCCGCCACUCGUACAGAACUGGCUAAUAUAUGGAUAGGUGA [VII],169
2,UCGGGCGGCUGAAGGAGCGGGCGGGCCCGAGUGAUGUUCGGGUGGGCCGUGAGGCCCGGAGCCCAGGUAGGUCGCGGUUCCGCCC [#2 Same State - Arginine B Attempt #23 (HarryS)],168
3,GGUGCUGGCCAGUGAUGUUGGCGAAUACUGAAGGAUAUGAUAGGCGUCAGAAGGUCAAGAGUAAUAUCUAGAAUGAAUAGUGAUA [theeternabot_sameState_KL_FMN_A_38],439
4,AUUCGCAGUGAUGUUGCGAUUCCGUUGAGGGAGGAUAUUGGUAAUACAAGAAGGCCCGGCUGCGGGUGAUGUUCGCAUUAGGGCC [Exclusion FMN A GF18],153
5,AAUAUAGUGAUGUUAUAUAAGAAGGAGUUACGAGGACCGGUACGGCCGCCACUCGAAACGAGUGAGGAUUUGGGAGAUUGGGUUU [SSTryptA.M],324
6,GGUGUUGUUUGUGCCGUCUUCCUCGUUCCUCGAGGACCGGUACGGCCGCCACUCGAGUGAUGUUUGGGUAGCGAUCCCUGUUAGU [Bdazzled - #10 Exc. Tryptophan A],602
7,GGAUCGCAUGGCGAAAAGCCAUGCGAUCCACGAGGACCGGUACGGCCGCCACUCGCCGGAGUGAUGUUCCGCUACAGAUCUUAAA,144
8,AAUGUACAGGGAAGGAGCGUAGUCCAGUGAUGUUGGAAUUAAAUUCCUGUGAUGUUGGUUAUACAGGUAGGUCGCCCUAAAGUGC [KL-XARG-B21],118
9,UGUGUGUAGGGAAGGAGCGCCGAGAGAAGAAGAAAAGAGUGAUGUUCAAGACAAUAAAGACGGCAGGUAGGUCGCCCUGUGUGUG [Default title],517
10,GUAGCACUUGGUAGUGAUGUUACCAAGGACAAGGAUAUCAUCUCAAUGAGAAGGUGUCCUUGGUAACAGCUACGGGAAUAUCCCA [Omei KL FMN A Exc D v2],242
11,AGACUACUGAUAGGAUAUAACAUCCUAGUCGUAUACCGAAAGGUAUACGAUAUCCUUCUAGUGAUGUUAGAAGGGUCGGUAGUCA [Omei KL FMN B Exc B v10],88.3
12,UGAUGUUUAGUUCACCCAGUGAUGUUGGAAGGAGCGUGCGAAAGCACAGGUAGGUCGCCAACCUAAAAGUGUCUUGAUUAUCUAA [JR_Nu_ExcArginiA_Sub028],460
13,GAUGCAUAUUCCUGGAGGAAGAUGGUUAAGAAGGAUAUCAAAGCCGUGAGAAGGUCUAAACCUAAUAGUCGAGUGAUGUUCGACC [theeternabot_sameState_KL_FMN_A_35],428
14,AUCUGGUUGGGCGAUACCAGUUUGGCAUAGUGAUGUUAUGCAACGCUCAGUGCAAGGCCAAACCCUUGGCAGCGCACAUCCUUUC [theeternabot_exclusion_KL_Theo_B_3],117
15,GGUGUUGUUUGUGCCGUUUUCCUCGUUCCUCGAGGACCGGUACGGCCGCCACUCGAGUGAUGUUUGGGUAGCGAUCCCUGUUAGU [Bdazzled - #9 Exc. Tryptophan A],802

# Source: the supplement of paper PMC9170038
